Data as given in patent US20260167699A1 (Chugai, published 2026).

T1: FcγRIIb (human, UniProt P31994 43-217)
T1 construct: extracellular domain; also called 2b
T1 sequence: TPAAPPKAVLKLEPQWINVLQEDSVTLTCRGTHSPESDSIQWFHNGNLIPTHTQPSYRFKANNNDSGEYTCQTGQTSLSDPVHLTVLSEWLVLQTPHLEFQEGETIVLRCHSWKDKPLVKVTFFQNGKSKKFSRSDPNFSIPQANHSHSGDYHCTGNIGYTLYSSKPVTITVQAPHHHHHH

T2: FcγRIIa(R) (human, UniProt P12318 34-217)
T2 construct: extracellular domain; also called 2aR
T2 sequence: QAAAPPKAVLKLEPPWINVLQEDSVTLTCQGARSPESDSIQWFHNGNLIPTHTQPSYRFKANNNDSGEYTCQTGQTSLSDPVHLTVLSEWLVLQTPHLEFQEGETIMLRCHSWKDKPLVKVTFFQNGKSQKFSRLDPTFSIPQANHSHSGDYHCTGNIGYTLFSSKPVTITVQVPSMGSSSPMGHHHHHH

T3: FcγRIIa(H) (human, UniProt P12318 34-217)
T3 construct: extracellular domain; also called 2aH
T3 sequence: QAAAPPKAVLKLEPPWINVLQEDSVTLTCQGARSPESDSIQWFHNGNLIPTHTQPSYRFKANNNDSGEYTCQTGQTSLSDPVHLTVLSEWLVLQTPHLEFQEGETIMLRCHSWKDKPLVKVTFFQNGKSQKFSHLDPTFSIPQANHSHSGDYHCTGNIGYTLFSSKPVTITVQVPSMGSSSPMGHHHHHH


How the values were obtained:
FcγRIIIa [1] = target: T4, FcγRIIIa (human, UniProt P08637 17-208); assay: SPR (Biacore T100), antibody captured on protein L chip, FcγRIIIa as analyte, TBS(+), 25 C, 1:1 Langmuir fit
T4 construct: extracellular domain; also called 3a
T4 sequence (P08637 other isoform, or with tags, fused parts or gaps): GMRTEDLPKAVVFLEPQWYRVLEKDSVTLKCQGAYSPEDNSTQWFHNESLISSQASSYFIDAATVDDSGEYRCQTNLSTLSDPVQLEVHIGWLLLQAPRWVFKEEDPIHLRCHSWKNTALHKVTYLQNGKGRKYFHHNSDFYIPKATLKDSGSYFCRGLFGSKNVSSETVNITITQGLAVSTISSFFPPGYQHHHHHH
Procedure: Specifically, their interaction with FcγRIIIa was analyzed using BiaCore™ T100 surface plasmon resonance system (GE Healthcare Japan Corp.). The running buffer used was the TBS(+) solution used in the preceding paragraph. The assay temperature was set to 25° C. Protein L was immobilized onto Series S Sensor Chip CM4 (GE Healthcare Japan Corp.) by the amine coupling method to prepare a chip. Each antibody of interest was captured onto the protein L-immobilized chip and allowed to interact with FcγRIIIa diluted with a running buffer. The antibody captured on the chip was washed off through the reaction of 10 mM glycine-HCl (pH 1.5) to regenerate the chip, which was repetitively used.
Each antibody was evaluated for its binding activity against FcγRIIIa with binding activity against FcγRIIIa and dissociation constant for FcγRIIIa as main indexes. […] Specifically, a sensorgram obtained by assay using BiaCore™ surface plasmon resonance Evaluation Software was globally fit into the 1:1 Langmuir model to calculate an association rate constant ka (L/mol/s) and a dissociation rate constant kd (1/s). From these values, the dissociation constant KD (mol/L) was calculated.

FcγRIIIaV = target: T5, FcγRIIIaV (human, UniProt P08637 17-208); assay: SPR (Biacore), antibody captured, FcγR as analyte, 1:1 Langmuir fit
T5 construct: extracellular domain
Procedure: The antibody of interest was analyzed for its interaction with FcγR using a BiaCore™ T100, BiaCore™ A100, or BiaCore™ 4000 surface plasmon resonance system (GE Healthcare Japan Corp.). The running buffer used was HBS-EP+ (GE Healthcare Japan Corp.). The assay temperature was set to 25° C. The sensor chips used were: a chip prepared by immobilizing antigenic peptides onto Series S Sensor Chip CM5 (GE Healthcare Japan Corp.) by the amine coupling method; a chip prepared by immobilizing antigenic peptides biotinylated in advance onto Series S Sensor Chip SA (certified) (GE Healthcare Japan Corp.) through their interaction; a chip prepared by immobilizing protein L (ACTIGEN, BioVision, Inc.) onto Series S Sensor Chip CM5 (GE Healthcare Japan Corp.); and a chip prepared by immobilizing protein A/G (Thermo Fisher Scientific K.K.) onto Series S Sensor Chip CM5 (GE Healthcare Japan Corp.). The antibody of interest was captured onto any of these chips and allowed to interact with FcγR diluted with a running buffer. The antibody captured on the chip was washed off through the reaction of 10 mM glycine-HCl (pH 1.5) to regenerate the chip, which was repetitively used.

FcγRIIb = target: T1, FcγRIIb; assay: SPR, relative to GpH7-A5/GpH7-B3/GpL16-k0 =100
FcγRIIIa [2] = target: T6, FcγRIIIa (human, UniProt P08637 17-208); assay: SPR, relative to GpH7-A5/GpH7-B3/GpL16-k0 =100
T6 construct: extracellular domain; also called 3a

FcγRIa = target: T7, FcγRIa (human, UniProt P12314 16-292); assay: SPR, relative to GpH7-A5/GpH7-B3/GpL16-k0 =100
T7 construct: extracellular domain; also called 1a

FcγRIIa(R) = target: T2, FcγRIIa(R); assay: SPR, relative to GpH7-A5/GpH7-B3/GpL16-k0 =100
FcγRIIa(H) = target: T3, FcγRIIa(H); assay: SPR, relative to GpH7-A5/GpH7-B3/GpL16-k0 =100

T7 sequence (P12314 other isoform, or with tags, fused parts or gaps): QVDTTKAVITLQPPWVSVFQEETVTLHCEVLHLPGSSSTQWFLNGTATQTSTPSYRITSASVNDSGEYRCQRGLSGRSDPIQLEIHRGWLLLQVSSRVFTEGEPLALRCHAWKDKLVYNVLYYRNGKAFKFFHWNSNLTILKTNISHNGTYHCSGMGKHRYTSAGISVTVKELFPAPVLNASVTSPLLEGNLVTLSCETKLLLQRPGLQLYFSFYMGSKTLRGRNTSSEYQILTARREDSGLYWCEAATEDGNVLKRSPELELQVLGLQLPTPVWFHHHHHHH
T5 sequence (P08637 other isoform, or with tags, fused parts or gaps): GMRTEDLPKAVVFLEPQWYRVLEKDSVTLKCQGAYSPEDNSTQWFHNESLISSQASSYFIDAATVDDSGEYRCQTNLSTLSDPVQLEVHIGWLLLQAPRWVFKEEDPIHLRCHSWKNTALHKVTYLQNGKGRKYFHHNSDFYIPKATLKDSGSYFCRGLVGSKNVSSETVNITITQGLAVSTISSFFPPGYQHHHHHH

| Kd (FcγRIIIa [1]) [nM] | Kd (FcγRIIIaV) [nM] | He/Con 2b (FcγRIIb) [%] | He/Con 3a (FcγRIIIa [2]) [%] | He/Con 1a (FcγRIa) [%] | He/Con 2aR (FcγRIIa(R)) [%] | He/Con 2aH (FcγRIIa(H)) [%] | Binder |
| --- | --- | --- | --- | --- | --- | --- | --- |
|  |  | 106 | 72.3 | 97.8 | 94.6 | 57.8 | GpH7-A5/GpH7-B3 variant S324_05P/GpL16-k0 (antibody, human IgG1, kappa, He Ab: heterodimerized IgG1, one H chain mutated) heavy 1: not shown heavy 2: not shown light: DIVMTQSPLSLPVTPGEPASISCQASESLVHSNRNTYLHWYLQKPGQSPQLLIYKVSNRFSGVPDRFSGSGSGTDFTLKISRVEAEDVGVYYCSQNTHVPPTFGQGTKVEIERTVAAPSVFIFPPSDEQLKSGTASVVCLLNNFYPREAKVQWKVDNALQSGNSQESVTEQDSKDSTYSLSSTLTLSKADYEKHKVYACEVTHQGLSSPVTKSFNRGEC |
|  |  | 215 | 54.9 | 104 | 136 | 65.7 | GpH7-A5/GpH7-B3 variant L328_10E/GpL16-k0 (antibody, human IgG1, kappa, He Ab: heterodimerized IgG1, one H chain mutated) heavy 1: not shown heavy 2: not shown light: DIVMTQSPLSLPVTPGEPASISCQASESLVHSNRNTYLHWYLQKPGQSPQLLIYKVSNRFSGVPDRFSGSGSGTDFTLKISRVEAEDVGVYYCSQNTHVPPTFGQGTKVEIERTVAAPSVFIFPPSDEQLKSGTASVVCLLNNFYPREAKVQWKVDNALQSGNSQESVTEQDSKDSTYSLSSTLTLSKADYEKHKVYACEVTHQGLSSPVTKSFNRGEC |
|  |  | 114 | 111 | 108 | 106 | 114 | GpH7-A5/GpH7-B3 variant S324_20W/GpL16-k0 (antibody, human IgG1, kappa, He Ab: heterodimerized IgG1, one H chain mutated) heavy 1: not shown heavy 2: not shown light: DIVMTQSPLSLPVTPGEPASISCQASESLVHSNRNTYLHWYLQKPGQSPQLLIYKVSNRFSGVPDRFSGSGSGTDFTLKISRVEAEDVGVYYCSQNTHVPPTFGQGTKVEIERTVAAPSVFIFPPSDEQLKSGTASVVCLLNNFYPREAKVQWKVDNALQSGNSQESVTEQDSKDSTYSLSSTLTLSKADYEKHKVYACEVTHQGLSSPVTKSFNRGEC |

Further lines, the binder ahead of its results:

| Binder | Kd (FcγRIIIa [1]) [nM] | Kd (FcγRIIIaV) [nM] | He/Con 2b (FcγRIIb) [%] | He/Con 3a (FcγRIIIa [2]) [%] | He/Con 1a (FcγRIa) [%] | He/Con 2aR (FcγRIIa(R)) [%] | He/Con 2aH (FcγRIIa(H)) [%] |
| --- | --- | --- | --- | --- | --- | --- | --- |
| H240-G1dE/H240-G1dE/L73 (antibody, human IgG1, kappa, anti-EREG antibody with constant regions derived from human natural IgG1; also called IgG1; naturally occurring IgG1) heavy: not shown light: DIQMTQSPSSLSASVGDRVTITCRASQDIHKYIAWYQQKPGQAPRLLIQYTSTLQPGVPSRFSGSGSGTDYTFTISSLQPEDIATYYCLQYEQLRTFGGGTKVEIKRTVAAPSVFIFPPSDEQLKSGTASVVCLLNNFYPREAKVQWKVDNALQSGNSQESVTEQDSKDSTYSLSSTLTLSKADYEKHKVYACEVTHQGLSSPVTKSFNRGEC | 290 | 340 |  |  |  |  |  |
| H240-Kn125-ma1/H240-Hl076/L73 (antibody, human IgG1, kappa, heterodimerized anti-EREG antibody with the RGD peptide inserted in a loop region of the H240-Kn125 chain; also called H240-Kn125-ma1/H240-HI076/L73) heavy 1: QDQLVQSGAEVKKPGASVKVSCKASGFNIKDTYIQWVRQAPGQGLEWMGRIDPLRKQTKYREKFEGRVTITADTSTNTAYMELSSLRSEDTAVYYCVRSGREFDYWGQGTLVTVSSASTKGPSVFPLAPSSKSTSGGTAALGCLVKDYFPEPVTVSWNSGALTSGVHTFPAVLQSSGLYSLSSVVTVPSSSLGTQTYICNVNHKPSNTKVDKKVEPKSCDKTHTCPPCPAPELLGGPSVFLFPPKPKDTLMISRTPEVTCVVVDVSHEEPEVKFNWYVDGVEVHNAKTKPREEQYNSTYRVVSVLTVLHQDWLNGKEYKCKVSNDALPMPIEETISKAKGQPREPQVYTLPPSRCELTKNQVSLSCAVKGFYPSDIAVEWESNGQPENNYKTTPPVLDSDGSFFLVSKLTVDKSRWQQGNVFSCSVMHEALHNHYTQKSLSLSP heavy 2: QDQLVQSGAEVKKPGASVKVSCKASGFNIKDTYIQWVRQAPGQGLEWMGRIDPLRKQTKYREKFEGRVTITADTSTNTAYMELSSLRSEDTAVYYCVRSGREFDYWGQGTLVTVSSASTKGPSVFPLAPSSKSTSGGTAALGCLVKDYFPEPVTVSWNSGALTSGVHTFPAVLQSSGLYSLSSVVTVPSSSLGTQTYICNVNHKPSNTKVDKKVEPKSCDKTHTCPPCPAPEYQWGPMVFLFPPKPKDTLMISRTPEVTCVVVDVSGCRGDCLEPEVKFNWYVDGVEVHNAKTKPREEQYNATYRVVSVLTVLHQDWLNGKEYKCKVSNKALPAPIEKTISKAKGQPREPQVCTLPPSRDELTKNQVSLWCLVKGFYPSDIAVEWESNGQPENNYKTTPPVLDSDGSFFLYSKLTVDKSRWQQGNVFSCSVMHEALHNHYTQKSLSLSP light: DIQMTQSPSSLSASVGDRVTITCRASQDIHKYIAWYQQKPGQAPRLLIQYTSTLQPGVPSRFSGSGSGTDYTFTISSLQPEDIATYYCLQYEQLRTFGGGTKVEIKRTVAAPSVFIFPPSDEQLKSGTASVVCLLNNFYPREAKVQWKVDNALQSGNSQESVTEQDSKDSTYSLSSTLTLSKADYEKHKVYACEVTHQGLSSPVTKSFNRGEC | 160 |  |  |  |  |  |  |
| H240-Kn125/H240-Hl076-ma1/L73 (antibody, human IgG1, kappa, heterodimerized anti-EREG antibody with the RGD peptide inserted in a loop region of the H240-Hl076 chain; also called H240-Kn125/H240-HI076-ma1/L73) heavy 1: QDQLVQSGAEVKKPGASVKVSCKASGFNIKDTYIQWVRQAPGQGLEWMGRIDPLRKQTKYREKFEGRVTITADTSTNTAYMELSSLRSEDTAVYYCVRSGREFDYWGQGTLVTVSSASTKGPSVFPLAPSSKSTSGGTAALGCLVKDYFPEPVTVSWNSGALTSGVHTFPAVLQSSGLYSLSSVVTVPSSSLGTQTYICNVNHKPSNTKVDKKVEPKSCDKTHTCPPCPAPELLGGPSVFLFPPKPKDTLMISRTPEVTCVVVDVSGCRGDCLEPEVKFNWYVDGVEVHNAKTKPREEQYNSTYRVVSVLTVLHQDWLNGKEYKCKVSNDALPMPIEETISKAKGQPREPQVYTLPPSRCELTKNQVSLSCAVKGFYPSDIAVEWESNGQPENNYKTTPPVLDSDGSFFLVSKLTVDKSRWQQGNVFSCSVMHEALHNHYTQKSLSLSP heavy 2: QDQLVQSGAEVKKPGASVKVSCKASGFNIKDTYIQWVRQAPGQGLEWMGRIDPLRKQTKYREKFEGRVTITADTSTNTAYMELSSLRSEDTAVYYCVRSGREFDYWGQGTLVTVSSASTKGPSVFPLAPSSKSTSGGTAALGCLVKDYFPEPVTVSWNSGALTSGVHTFPAVLQSSGLYSLSSVVTVPSSSLGTQTYICNVNHKPSNTKVDKKVEPKSCDKTHTCPPCPAPEYQWGPMVFLFPPKPKDTLMISRTPEVTCVVVDVSDEEPEVKFNWYVDGVEVHNAKTKPREEQYNATYRVVSVLTVLHQDWLNGKEYKCKVSNKALPAPIEKTISKAKGQPREPQVCTLPPSRDELTKNQVSLWCLVKGFYPSDIAVEWESNGQPENNYKTTPPVLDSDGSFFLYSKLTVDKSRWQQGNVFSCSVMHEALHNHYTQKSLSLSP light: DIQMTQSPSSLSASVGDRVTITCRASQDIHKYIAWYQQKPGQAPRLLIQYTSTLQPGVPSRFSGSGSGTDYTFTISSLQPEDIATYYCLQYEQLRTFGGGTKVEIKRTVAAPSVFIFPPSDEQLKSGTASVVCLLNNFYPREAKVQWKVDNALQSGNSQESVTEQDSKDSTYSLSSTLTLSKADYEKHKVYACEVTHQGLSSPVTKSFNRGEC | 2.1 |  |  |  |  |  |  |
| GpH7-A5/GpH7-B3 variant A327_01G/GpL16-k0 (antibody, human IgG1, kappa, He Ab: heterodimerized IgG1, one H chain mutated) heavy 1: not shown heavy 2: not shown light: DIVMTQSPLSLPVTPGEPASISCQASESLVHSNRNTYLHWYLQKPGQSPQLLIYKVSNRFSGVPDRFSGSGSGTDFTLKISRVEAEDVGVYYCSQNTHVPPTFGQGTKVEIERTVAAPSVFIFPPSDEQLKSGTASVVCLLNNFYPREAKVQWKVDNALQSGNSQESVTEQDSKDSTYSLSSTLTLSKADYEKHKVYACEVTHQGLSSPVTKSFNRGEC |  |  | 144 | 74.4 | 101 | 126 | 115 |
